Where “and” joins values, the source holds several entries; their conditions need not be identical. Equal values may be shown once.
Legend:
Salmon sperm DNA = experiment: Non-specific binding to DNA (membrane-adsorbed DNA, biotinylated HRP, ECL); conditions: salmon sperm DNA 10 μg to 1 μg on membrane, 25 μg/mL protein
Protocol: Salmon sperm DNA diluted stepwise from 10 μg to 1 μg with 2×SSC buffer was denatured with an alkali and was adsorbed to Hybond N+membrane (Amersham Biosciences) using Bio-Dot SF (BIO-RAD). After blocking the membrane with 5×Denhardt's solution (0.1% BSA, 0.1% ficoll, 0.1% polyvinylpyrrolidone), the membrane was immersed in 25 μg/mL of low-pI TM2 or the wild-type TM2 at room temperature for 90 minutes. Then, the membrane was washed with a TUBS buffer (TBS buffer containing 0.05% Tween 20) at room temperature for 5 minutes three times. The membrane was blocked with a TBS buffer containing 3% skimmed milk and 0.1% Tween 20 for 1 hour. The membrane was subjected to a reaction with biotinylated horseradise peroxidase (Vector) diluted 5000 times with a TBS buffer containing 3% skimmed milk and 0.1% Tween 20 at room temperature for 1 hour. The membrane was washed with a TBS buffer containing 0.1% Tween 20 again and was then shaken in a solution that is a mixture of reagent 1 and reagent 2 of ECL (Amasham) in the same volumes, followed by detection of the luminol reaction with Las-3000 (FUJIFILM).
The non-specific binding of HALU TM2 to DNA was analyzed by the process in paragraph 1-11) of Example 1.

[1] = Isoelectric focusing electrophoresis (pI observed); type: physicochemical; conditions: pH 3 to 10 gel
In short: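 Proteins focused on pH 3–10 polyacrylamide IEF gels, run 100 V 1 h, 200 V 1 h, 500 V 45 min. Low-pI variants (500 ng) detected by western blot with anti-TM2 rabbit antibody and AP-labeled secondary; HALU variants (4 μg) visualized by CBB staining. Observed pI taken from band position.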

human serum protein = experiment: Non-specific adsorption of low-pI TM2 to human serum protein-immobilized magnetic beads; type: binding; conditions: wild type TM2 = 100
Protocol: In this embodiment, non-specific binding to human serum was investigated as non-specific adsorption of low-pI TM2 to serum protein-immobilized magnetic beads. Specifically, in order to investigate the non-specific binding of low-pI TM2, the amount of low-pI TM2 adsorbed to magnetic beads to which human serum protein was covalently bonded was measured. TM2 K26A, TM2 K73Q, TM2 R104E, TM2 K141E, and TM2 R104EK141E, which were highly expressed in Escherichia coli, were used as the low-pI TM2 to be investigated.
Human serum protein and magnetic beads were bound to each other as follows. Magnetic beads having surfaces coated with carboxyl groups (Dynabeads M-270 Carboxylic Acid, Dynal, 210 μL) were washed with 0.01 N sodium hydroxide (210 μL) for 10 minutes and then with ultrapure water (210 μL) for 10 minutes three times. To the washed magnetic beads, 1-ethyl-3-(3-dimethylaminopropyl)carbodiimide hydrochloride (EDC, PIERCE) dissolved in cooled ultrapure water was added into a final concentration of 0.2 M, and the mixture was shaken at room temperature for 30 minutes. Then, the magnetic beads were washed with cooled ultrapure water (210 μL) and then with 50 mM MES buffer (pH 5.0, 210 μL).
To the magnetic beads, 1 mg/mL human serum protein (CHEMICON, 210 μL) dialyzed with 50 mM MES buffer (pH 5.0) was added. The mixture was shaken at room temperature for 30 minutes to covalently bind the human serum protein to the magnetic beads. The magnetic beads were collected with a magnet to remove the supernatant. The unreacted active groups on the beads were eliminated with 50 mM tris buffer (pH 7.0, 210 μL), and then the magnetic beads were blocked with a PBS buffer (420 μL) containing 0.5% BSA and 0.1% Tween 20. The magnetic beads were suspended in a PBS buffer (210 μL) to obtain human serum protein-immobilized magnetic beads.
The magnetic beads (7 μL) and 0.56 μg/mL of each low-pI TM2 (100 μL) were mixed for reaction at room temperature for 1 hour. The magnetic beads were collected with a magnetic, and the supernatant was removed. After washing with 20 mM potassium phosphate buffer (500 μL) containing 500 mM sodium chloride, the magnetic beads were mixed with 20 μL of 2×SDS sample buffer (250 mM Tris-HCl, pH 6.8, 20% 2-mercaptoethanol, 20% SDS, 20% glycerol), followed by heating at 95° C. for 20 minutes to dissociate the low-pI TM2 from the magnetic beads.
This sample was subjected to SDS-PAGE and then western blotting analysis to determine the amount of the low-pI TM2. Anti-tamavidin 2 rabbit antibody and alkaline phosphatase-labeled anti-rabbit IgG goat antibody were used as the primary antibody and the secondary antibody, respectively. The bands were detected with Alkaline Phosphatase Substrate Kit II <VECTOR Black> (VECTRO) and were quantified with Las-3000 (FUJIFILM).

Molecule	Non-specific binding of DNA (Salmon sperm DNA)	Non-specific binding of DNA (Salmon sperm DNA; listed as wild type TM2)	pI observed [1]	pI observed ([1]; listed as TM2WT)	pI observed ([1]; listed as wild type TM2)	Non-specific binding of serum protein (%) (human serum protein)
TM2: wild type tamavidin 2, biotin-binding protein from Pleurotus cornucopiae, amino acid sequence SEQ ID NO: 2 (protein, listed as Pleurotus cornucopiae) MSDVQSSLTGTWYNELNSKMELTANKDGTLTGKYLSKVGDVYVPYPLSGRYNLQPPAGQGVALGWAVSWENSKIHSATTWSGQFFSESSPVILTQWLLSSSTARGDVWESTLVGNDSFTKTAPTEQQIAHAQLHCRAPRLK	weakly bound	weakly bound	8.5 to 8.8	8.5 to 8.8	8.2 to 8.6 and 8.5 to 8.8	100%
TM2 D40NR104EK141E: TM2 mutant having mutation of D40N and R104EK141E; SEQ ID NO: 24 (protein, Synthetic TM2 D40NR104EK141E) MSDVQSSLTGTWYNELNSKMELTANKDGTLTGKYLSKVGNVYVPYPLSGRYNLQPPAGQGVALGWAVSWENSKIHSATTWSGQFFSESSPVILTQWLLSSSTAEGDVWESTLVGNDSFTKTAPTEQQIAHAQLHCRAPRLE	lower than the detection limit		7.3 to 7.5			

Source: US8304236B2, “Modified biotin-binding protein” (Japan Tobacco Inc., priority 2008, dated 2012)
